Patent US20220048967A1 (published 2022)
Numbering of substitutions follows the chain as printed. Numbered stars: 1 amine (or outer) side, 2 acyl side, 3 side chain; on linkers, the order of the positions; unused ones are H or OH. Square brackets hold non-standard residues; d marks the D form. Side chains are listed from the residue outwards. Ends that are not written are not given here. * marks the point of attachment. C20 diacid = O=C(O)CCCCCCCCCCCCCCCCCCC(=O)*; γGlu = O=C(O)[C@H](CCC(=O)[*:2])N[*:1]; Desaminotyrosyl = O=C(CCc1ccc(O)cc1)*; αMeF = C[C@](N)(Cc1ccccc1)C(=O)O; cTA = not defined here; AEEA = NCCOCCOCC(=O)O; Aib = CC(C)(N)C(=O)O

T1: human gastric inhibitory peptide receptor (GIPR) (human, UniProt P48546 22-466)
T1 sequence (looked up): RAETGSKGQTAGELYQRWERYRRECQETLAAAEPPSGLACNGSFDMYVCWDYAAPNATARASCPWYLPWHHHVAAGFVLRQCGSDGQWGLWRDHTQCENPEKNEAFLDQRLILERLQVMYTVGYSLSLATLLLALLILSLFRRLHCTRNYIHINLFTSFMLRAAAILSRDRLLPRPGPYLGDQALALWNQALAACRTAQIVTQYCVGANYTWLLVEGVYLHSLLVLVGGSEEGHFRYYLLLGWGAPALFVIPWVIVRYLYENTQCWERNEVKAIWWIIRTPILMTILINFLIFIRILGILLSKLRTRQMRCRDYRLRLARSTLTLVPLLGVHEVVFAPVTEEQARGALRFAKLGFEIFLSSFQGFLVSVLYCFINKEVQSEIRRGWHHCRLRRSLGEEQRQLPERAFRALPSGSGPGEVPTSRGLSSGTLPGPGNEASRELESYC

B1: Example 319 (peptide)
peptide: Y[Aib]EGTFTSDYSILLDKK([AEEA-AEEA-γGlu-C20 diacid])AQ[Aib]EFIEYLIAGGPSSGAPPPS-NH2
modifications: N-terminus assumed
SMILES: CC[C@H](C)[C@H](NC(=O)[C@H](CC(C)C)NC(=O)[C@H](Cc1ccc(O)cc1)NC(=O)[C@H](CCC(=O)O)NC(=O)[C@@H](NC(=O)[C@H](Cc1ccccc1)NC(=O)[C@H](CCC(=O)O)NC(=O)C(C)(C)NC(=O)[C@H](CCC(N)=O)NC(=O)[C@H](C)NC(=O)[C@H](CCCCNC(=O)COCCOCCNC(=O)COCCOCCNC(=O)CC[C@H](NC(=O)CCCCCCCCCCCCCCCCCCC(=O)O)C(=O)O)NC(=O)[C@H](CCCCN)NC(=O)[C@H](CC(=O)O)NC(=O)[C@H](CC(C)C)NC(=O)[C@H](CC(C)C)NC(=O)[C@@H](NC(=O)[C@H](CO)NC(=O)[C@H](Cc1ccc(O)cc1)NC(=O)[C@H](CC(=O)O)NC(=O)[C@H](CO)NC(=O)[C@@H](NC(=O)[C@H](Cc1ccccc1)NC(=O)[C@@H](NC(=O)CNC(=O)[C@H](CCC(=O)O)NC(=O)C(C)(C)NC(=O)[C@@H](N)Cc1ccc(O)cc1)[C@@H](C)O)[C@@H](C)O)[C@@H](C)CC)[C@@H](C)CC)C(=O)N[C@@H](C)C(=O)NCC(=O)NCC(=O)N1CCC[C@H]1C(=O)N[C@@H](CO)C(=O)N[C@@H](CO)C(=O)NCC(=O)N[C@@H](C)C(=O)N1CCC[C@H]1C(=O)N1CCC[C@H]1C(=O)N1CCC[C@H]1C(=O)N[C@@H](CO)C(N)=O
B2: Example 323 (peptide)
peptide: YXEGTFTSDYSIXLDEKAQXAFIEYLIEGGPSSGAPPPS
modifications: Aib2, αMeL13, K17 conjugated to (2-[2-(2-Amino-ethoxy)-ethoxy]-acetyl)2-(γ-Glu)-CO-(CH2)16-CO2H, Aib20, C-terminal amide (NH2)
B3: Example 328 (peptide)
peptide: B2 peptide with Y1F, E16K, G29A
modifications: Aib2, αMeL13, K17 conjugated to (2-[2-(2-Amino-ethoxy)-ethoxy]-acetyl)2-(γ-Glu)-CO-(CH2)16-CO2H, Aib20, C-terminal amide (NH2)
B4: Example 325 (peptide)
peptide: B2 peptide with F6X, X13L, E16K
modifications: Aib2, αMeF(2F)6, K17 conjugated to (2-[2-(2-Amino-ethoxy)-ethoxy]-acetyl)2-(γ-Glu)-CO-(CH2)18-CO2H, Aib20, C-terminal amide (NH2)
B5: Example 324 (peptide)
peptide: B2 peptide with E16K, E28A
modifications: Aib2, αMeL13, K17 conjugated to (2-[2-(2-Amino-ethoxy)-ethoxy]-acetyl)2-(γ-Glu)-CO-(CH2)18-CO2H (printed "(CH2)1s"), Aib20, C-terminal amide (NH2)
B6: Example 326 (peptide)
peptide: F[Aib]EGTFTSDYSILLDKK([AEEA-AEEA-γGlu-C20 diacid])AQ[Aib]AFIEYLIEGGPSSGAPPPS-NH2
B7: Example 124 (peptide)
peptide: Y[Aib]EGT[αMeF]TSDYSIXLDEK([AEEA-AEEA-γGlu-C20 diacid])AQ[Aib]EFIEYLIEGGPSSG-NH2
modifications: not fully specified (residue 13); printed as Y-Aib-EGT-αMeF-TSDYSI-αMeF-LDEK((2-[2-(2-Amino-ethoxy)-ethoxy]-acetyl)2-(γ-Glu)-CO-(CH2)18-CO2H)AQ-Aib-EFIEYLIEGGPSSG-NH2
B8: Example 120 (peptide)
peptide: Y[Aib][cTA]GT[αMeF]TSDYSIXLDEK([AEEA-AEEA-γGlu-C20 diacid])AQ[Aib]AFIEYLIEGGPSSGAPPPS-NH2
modifications: not fully specified (residue 13); printed as Y-Aib-cTA-GT-αMeF-TSDYSI-αMeF-LDEK((2-[2-(2-Amino-ethoxy)-ethoxy]-acetyl)2-(γ-Glu)-CO-(CH2)18-CO2H)AQ-Aib-AFIEYLIEGGPSSGAPPPS-NH2
B9: Example 130 (peptide)
peptide: B2 peptide with F6X, Y10E, X13L, E16K
modifications: Y-Aib-EGT-αMeF-TSDESILLDKK((2-[2-(2-Amino-ethoxy)-ethoxy]-acetyl)2-(γ-Glu)-CO-(CH2)18-CO2H)AQ-Aib-AFIEYLIEGGPSSGAPPPS-NH2
B10: Example 132 (peptide)
peptide: B2 peptide with F6X, Y10X, X13L, E16K
modifications: Y-Aib-EGT-αMeF-TSD-3Pal-SILLDKK((2-[2-(2-Amino-ethoxy)-ethoxy]-acetyl)2-(γ-Glu)-CO-(CH2)18-CO2H)AQ-Aib-AFIEYLIEGGPSSGAPPPS-NH2
B11: Example 128 (peptide)
peptide: B2 peptide with F6X, Y10H, X13L, E16K
modifications: Y-Aib-EGT-αMeF-TSDHSILLDKK((2-[2-(2-Amino-ethoxy)-ethoxy]-acetyl)2-(γ-Glu)-CO-(CH2)18-CO2H)AQ-Aib-AFIEYLIEGGPSSGAPPPS-NH2
B12: Example 131 (peptide)
peptide: B2 peptide with F6X, Y10X, X13L, E16K
modifications: Y-Aib-EGT-αMeF-TSD-αMeF-SILLDKK((2-[2-(2-Amino-ethoxy)-ethoxy]-acetyl)2-(γ-Glu)-CO-(CH2)18-CO2H)AQ-Aib-AFIEYLIEGGPSSGAPPPS-NH2
B13: Example 127 (peptide)
peptide: B2 peptide with F6X, Y10I, X13L, E16K
modifications: Y-Aib-EGT-αMeF-TSDISILLDKK((2-[2-(2-Amino-ethoxy)-ethoxy]-acetyl)2-(γ-Glu)-CO-(CH2)18-CO2H)AQ-Aib-AFIEYLIEGGPSSGAPPPS-NH2
B14: Example 129 (peptide)
peptide: B2 peptide with F6X, Y10L, X13L, E16K
modifications: Y-Aib-EGT-αMeF-TSDLSILLDKK((2-[2-(2-Amino-ethoxy)-ethoxy]-acetyl)2-(γ-Glu)-CO-(CH2)18-CO2H)AQ-Aib-AFIEYLIEGGPSSGAPPPS-NH2
B15: Example 186 (peptide)
peptide: B2 peptide with F6X, Y10X, A21E, E24X
modifications: Y-Aib-EGT-αMeF(2F)-TSD-αMeY-SI-αMeF-LDEK((2-[2-(2-Amino-ethoxy)-ethoxy]-acetyl)2-(γ-Glu)-CO-(CH2)18-CO2H)AQ-Aib-EFI-(D-Glu)-YLIEGGPSSGAPPPS-NH2
B16: Example 123 (peptide)
peptide: Y[Aib]EGT[αMeF]TSDYSIXLDKK([AEEA-AEEA-γGlu-C20 diacid])AQ[Aib]EFIEYLIEGGPSSG-NH2
modifications: not fully specified (residue 13); printed as Y-Aib-EGT-αMeF-TSDYSI-αMeF-LDKK((2-[2-(2-Amino-ethoxy)-ethoxy]-acetyl)2-(γ-Glu)-CO-(CH2)18-CO2H)AQ-Aib-EFIEYLIEGGPSSG-NH2
B17: Example 133 (peptide)
peptide: [Desaminotyrosyl][Aib]EGT[αMeF]TSDYSI[Aib]LDEK([AEEA-AEEA-γGlu-C20 diacid])AQ[Aib]AFIEYLIEGGPSSGAPPPS-NH2
SMILES: CC[C@H](C)[C@H](NC(=O)[C@H](CC(C)C)NC(=O)[C@H](Cc1ccc(O)cc1)NC(=O)[C@H](CCC(=O)O)NC(=O)[C@@H](NC(=O)[C@H](Cc1ccccc1)NC(=O)[C@H](C)NC(=O)C(C)(C)NC(=O)[C@H](CCC(N)=O)NC(=O)[C@H](C)NC(=O)[C@H](CCCCNC(=O)COCCOCCNC(=O)COCCOCCNC(=O)CC[C@H](NC(=O)CCCCCCCCCCCCCCCCCCC(=O)O)C(=O)O)NC(=O)[C@H](CCC(=O)O)NC(=O)[C@H](CC(=O)O)NC(=O)[C@H](CC(C)C)NC(=O)C(C)(C)NC(=O)[C@@H](NC(=O)[C@H](CO)NC(=O)[C@H](Cc1ccc(O)cc1)NC(=O)[C@H](CC(=O)O)NC(=O)[C@H](CO)NC(=O)[C@@H](NC(=O)[C@](C)(Cc1ccccc1)NC(=O)[C@@H](NC(=O)CNC(=O)[C@H](CCC(=O)O)NC(=O)C(C)(C)NC(=O)CCc1ccc(O)cc1)[C@@H](C)O)[C@@H](C)O)[C@@H](C)CC)[C@@H](C)CC)C(=O)N[C@@H](CCC(=O)O)C(=O)NCC(=O)NCC(=O)N1CCC[C@H]1C(=O)N[C@@H](CO)C(=O)N[C@@H](CO)C(=O)NCC(=O)N[C@@H](C)C(=O)N1CCC[C@H]1C(=O)N1CCC[C@H]1C(=O)N1CCC[C@H]1C(=O)N[C@@H](CO)C(N)=O
B18: Example 126 (peptide)
peptide: Y[Aib]EGT[αMeF]TSDYSIXLDKK([AEEA-AEEA-γGlu-C20 diacid])AQ[Aib]AFIEYLIEAGPSSGAPPPS-NH2
modifications: not fully specified (residue 13); printed as Y-Aib-EGT-αMeF-TSDYSI-αMeF-LDKK((2-[2-(2-Amino-ethoxy)-ethoxy]-acetyl)2-(γ-Glu)-CO-(CH2)18-CO2H)AQ-Aib-AFIEYLIEAGPSSGAPPPS-NH2
B19: Example 138 (peptide)
peptide: Y[Aib]EGT[αMeF]TSDYSIXLDKK([AEEA-AEEA-γGlu-C20 diacid])AQ[Aib]SFIEYLIEGGPSSGAPPPS-NH2
modifications: not fully specified (residue 13); printed as Y-Aib-EGT-αMeF-TSDYSI-αMeF-LDKK((2-[2-(2-Amino-ethoxy)-ethoxy]-acetyl)2-(γ-Glu)-CO-(CH2)18-CO2H)AQ-Aib-SFIEYLIEGGPSSGAPPPS-NH2
B20: Example 226 (peptide)
peptide: B2 peptide with F6X, X13L, A21E, E24X
modifications: Y-Aib-EGT-αMeF(2F)-TSDYSILLDEK((2-[2-(2-Amino-ethoxy)-ethoxy]-acetyl)2-(γ-Glu)-CO-(CH2)18-CO2H)AQ-Aib-EFI-(D-Glu)-YLIEGGPSSGAPPPS-NH2
B21: Example 225 (peptide)
peptide: B2 peptide with F6X, A21E, E24X
modifications: Y-Aib-EGT-αMeF-TSDYSI-Aib-LDEK((2-[2-(2-Amino-ethoxy)-ethoxy]-acetyl)2-(γ-Glu)-CO-(CH2)18-CO2H)AQ-Aib-EFI-(D-Glu)-YLIEGGPSSGAPPPS-NH2

target: human GLP-1 receptor (human, UniProt P43220 24-463); assay: cell-based or functional assay

| Binder | hGLP1R GTPgS % Top | hGLP1R GTPgS Rel EC50 |
| --- | --- | --- |
| B1 | 65.7% | 0.657 nM |
| B2 | 81.9% | 0.79 nM |
| B3 | 66.3% | 0.481 nM |
| B4 | 97.9% | 0.414 nM |
| B5 | 84.5% | 0.475 nM |
| B6 | 61.6% | 0.663 nM |

target: human GLP-1 receptor (GLP-1R) (human, UniProt P43220 24-463); assay: cell-based or functional assay

| Binder | hGLP1R cAMP EC50 ratio | hGLP1R cAMP Rel EC50 |
| --- | --- | --- |
| B7 | 1.29 | 0.0475 nM |
| B8 | 0.319 | 0.201 nM |
| B9 | 0.182 | 0.368 nM |
| B10 | 0.255 | 0.26 nM |
| B11 | 0.7 | 0.0924 nM |
| B12 | 0.425 | 0.156 nM |
| B13 | 0.443 | 0.145 nM |
| B14 | 0.543 | 0.121 nM |
| B15 | 0.572 | 0.0939 nM |
| B16 | 1.58 | 0.0344 nM |
| B17 | 1.52 | 0.0436 nM |
| B18 | 0.869 | 0.0715 nM |

target: T1, human gastric inhibitory peptide …; assay: cell-based or functional assay

| Binder | hGIPR cAMP EC50 ratio | hGIPR cAMP Rel EC50 |
| --- | --- | --- |
| B7 | 2.18 | 0.0762 nM |
| B19 |  | 0.0581 nM |
| B8 | 1.67 | 0.122 nM |
| B9 | 0.116 | 1.55 nM |
| B10 | 2.88 | 0.0657 nM |
| B20 |  | 0.0461 nM |
| B11 | 2.46 | 0.0694 nM |
| B12 | 1.03 | 0.183 nM |
| B13 | 0.917 | 0.158 nM |
| B21 |  | 0.101 nM |
| B14 | 1.88 | 0.106 nM |
| B16 | 4.04 | 0.0423 nM |
| B17 | 1.89 | 0.0879 nM |
| B18 | 2.53 | 0.0685 nM |
